This is an account of results in the RNAGym collection of RNA variant scans (doi:10.1073/pnas.2313332121).

Variants at the floor of the assay were thinned out.

B1: TPR 5TU (parent)
chain: GGAUCUUCUCGAUCUAACAAAAAAGACAAAUCUGCCACAAAGCUUGAGAGCAUCUUCGGAUGCAGAGGCGGCAGCCUUCGGUGGCGCGAUAGCGCCAACGUUCUCAACUAUGACACGCAAAACGCGUGCUCCGUUGAAUGGAGUUUAUCAUG

In this data set the parent is B1. The data set is described as follows: polymerase ribozyme fitness, log enrichment relative to wild type (log ratio); higher = more active; in vitro selection for triplet polymerase activity. An outline of the steps: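 The heterodimeric triplet polymerase ribozyme's subunits were each mutagenized into PCR-built libraries and transcribed. Every library was selected once, in triplicate, by annealing with a biotinylated primer, the partner subunit and triplets, incubating frozen at −7 °C, gel-excising extended constructs, capturing on streptavidin beads and running RT-PCR. Input and output libraries were Illumina-sequenced, with genotypes kept only at ≥10 input reads and ≥1 read per output. Fitness, from inverse-variance-weighted replicate averages, is the base-2 logarithm of genotype enrichment over wild-type enrichment.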
Take G84U A120U: the “polymerase ribozyme fitness (log ratio)” value was -2.07.

As for A21U G62A, the “polymerase ribozyme fitness (log ratio)” value came to 0.138.

Consider C54A A91G U104G U127A G152A, for which the “polymerase ribozyme fitness (log ratio)” value was ≤ -4.2.

With C108U C114U, the “polymerase ribozyme fitness (log ratio)” value is -4.06.

On to A12U G84C C93U G140A, for which the “polymerase ribozyme fitness (log ratio)” value was ≤ -4.2.

As for C10A C87U, the “polymerase ribozyme fitness (log ratio)” value is -3.47.

As to U6G A20U C43U A47U G59A G65C A73C G88U C96A A142G, the “polymerase ribozyme fitness (log ratio)” value is ≤ -4.2.

As for C36U C93A G117U, the “polymerase ribozyme fitness (log ratio)” value was -3.25.

For C14G A20C A40C A89C, the “polymerase ribozyme fitness (log ratio)” value is -4.13.

For the variant U13G C96G A120G, the “polymerase ribozyme fitness (log ratio)” value is -1.51.

Turning to G81A G86C A89U C125U C131U A137G, the “polymerase ribozyme fitness (log ratio)” value is -4.06.

Regarding G11U C32A G50A C116U A121U C132U U144G, the “polymerase ribozyme fitness (log ratio)” value was ≤ -4.2.

On to A24U U45A, for which the “polymerase ribozyme fitness (log ratio)” value is -3.

For the variant G46A G143C, the “polymerase ribozyme fitness (log ratio)” value was -3.81.

As for U7A C14G A29G C35G C36A G74A A91U C96A, the “polymerase ribozyme fitness (log ratio)” value was ≤ -4.2.

For the variant A52C C132U, the “polymerase ribozyme fitness (log ratio)” value was -2.24.

Consider A22U C57G C93G U151G, for which the “polymerase ribozyme fitness (log ratio)” value was ≤ -4.2.

As for C95U C149A, the “polymerase ribozyme fitness (log ratio)” value is ≤ -4.2.

With A30U U56A G59A G94U C125A U127A U144A, the “polymerase ribozyme fitness (log ratio)” value was ≤ -4.2.

Turning to A37G C38G G83U C118A C123U, the “polymerase ribozyme fitness (log ratio)” value was -4.05.

For the variant C54U G83A, the “polymerase ribozyme fitness (log ratio)” value was -0.655.

As for A12G C116G G126U, the “polymerase ribozyme fitness (log ratio)” value was 1.17.

Turning to C85U G136C, the “polymerase ribozyme fitness (log ratio)” value is -3.29.

On to U7A A29U A49C U53A G84C U102C, for which the “polymerase ribozyme fitness (log ratio)” value is ≤ -4.2.

Take C99A U135A: the “polymerase ribozyme fitness (log ratio)” value is -2.77.

Consider C5U C93U, for which the “polymerase ribozyme fitness (log ratio)” value worked out at 0.375.

As for U61A U78G C95U A107C U148G A150U, the “polymerase ribozyme fitness (log ratio)” value was ≤ -4.2.

On to A41G C85A U130G G143U A147G, for which the “polymerase ribozyme fitness (log ratio)” value is ≤ -4.2.

Consider A19U G68C C93G C131G, for which the “polymerase ribozyme fitness (log ratio)” value is ≤ -4.2.

Take A40U C57G A91U A138U: the “polymerase ribozyme fitness (log ratio)” value was ≤ -4.2.

In the case of U13G U78G G86U G140A G141A, the “polymerase ribozyme fitness (log ratio)” value is ≤ -4.2.

In the case of C35U U53A U55A C57G G70A G84A C93A, the “polymerase ribozyme fitness (log ratio)” value is ≤ -4.2.

For G59C C103U, the “polymerase ribozyme fitness (log ratio)” value came to 0.229.

Consider G92A A97G A122U U148C, for which the “polymerase ribozyme fitness (log ratio)” value was -3.63.

Consider A49U U55A U56G, for which the “polymerase ribozyme fitness (log ratio)” value was -1.76.

For G50U A60U C76A G80U U101G A107U, the “polymerase ribozyme fitness (log ratio)” value was ≤ -4.2.

For G92A G152U, the “polymerase ribozyme fitness (log ratio)” value was -3.58.

With U6C C14U C38U U61A U145C, the “polymerase ribozyme fitness (log ratio)” value is -4.04.

As for U44A C79U A89G U104A A107G, the “polymerase ribozyme fitness (log ratio)” value is ≤ -4.2.

Turning to A21U C51U A106U, the “polymerase ribozyme fitness (log ratio)” value is -2.08.

Consider A121G G143A A147U, for which the “polymerase ribozyme fitness (log ratio)” value is -1.46.

In the case of G11C C32G G34C G88C A106G C108A A110U C149G, the “polymerase ribozyme fitness (log ratio)” value is ≤ -4.2.

With U61G C85A G133C, the “polymerase ribozyme fitness (log ratio)” value was -3.52.

Consider C18A C27A A40U C87U C118U, for which the “polymerase ribozyme fitness (log ratio)” value is -4.17.

For C105A, the “polymerase ribozyme fitness (log ratio)” value was -0.411.

For C36U C96U A142C, the “polymerase ribozyme fitness (log ratio)” value was -2.88.

A16C A52G U55A G94U A107G: the “polymerase ribozyme fitness (log ratio)” value is ≤ -4.2.

As for A17U A52U A142C, the “polymerase ribozyme fitness (log ratio)” value was -3.3.

For C35U G58U G74A G80U G83A C116G, the “polymerase ribozyme fitness (log ratio)” value was ≤ -4.2.

As for C85U A89C C93U C149U, the “polymerase ribozyme fitness (log ratio)” value was -3.26.

Turning to A41U A60U U144G, the “polymerase ribozyme fitness (log ratio)” value was -0.464.

With A21C C69A, the “polymerase ribozyme fitness (log ratio)” value is -1.75.

G68A G71C C95A C116U: the “polymerase ribozyme fitness (log ratio)” value is ≤ -4.2.

For the variant A60G C72U G124A, the “polymerase ribozyme fitness (log ratio)” value was 0.612.

A21C A49U C54U C85G G117A G124U: the “polymerase ribozyme fitness (log ratio)” value is -3.06.

For the variant U13C G94C U104G, the “polymerase ribozyme fitness (log ratio)” value was -2.15.

Regarding U55C G62A A64C C72G G140U U144A, the “polymerase ribozyme fitness (log ratio)” value was ≤ -4.2.

For A28C C57A A66U G71A C87A U102G A138C, the “polymerase ribozyme fitness (log ratio)” value is ≤ -4.2.

For the variant A40U G71U C85G, the “polymerase ribozyme fitness (log ratio)” value was ≤ -4.2.

Take A39C A91C A137G: the “polymerase ribozyme fitness (log ratio)” value is ≤ -4.2.

Consider C63U C69A G80A C85U G94C C99A, for which the “polymerase ribozyme fitness (log ratio)” value was -3.32.

On to G11C U55A C76G G140U, for which the “polymerase ribozyme fitness (log ratio)” value was ≤ -4.2.

As to A73G G80U G94U U102C U127C, the “polymerase ribozyme fitness (log ratio)” value was ≤ -4.2.

For A120C G141C, the “polymerase ribozyme fitness (log ratio)” value was -0.144.

In the case of C75U G92U C105G A115U, the “polymerase ribozyme fitness (log ratio)” value is -4.17.

For C36A U82G U135C U145G G152U, the “polymerase ribozyme fitness (log ratio)” value was -3.98.

Consider C69U G84A A115G G117U G136C, for which the “polymerase ribozyme fitness (log ratio)” value is ≤ -4.2.

As for C27G U45G, the “polymerase ribozyme fitness (log ratio)” value is -3.87.

With C14A G46C C75G C87A A89U U90G C96U U102G G140A, the “polymerase ribozyme fitness (log ratio)” value was ≤ -4.2.

For the variant C14G G141A, the “polymerase ribozyme fitness (log ratio)” value was -1.87.

Turning to C54U C95U G133C, the “polymerase ribozyme fitness (log ratio)” value was -2.19.

With A21C U45A A64G G92A, the “polymerase ribozyme fitness (log ratio)” value was -3.46.

Take C10A C14U A30U C51A C57G G84A: the “polymerase ribozyme fitness (log ratio)” value was ≤ -4.2.

Regarding C35G G88A C95U U101A G141C, the “polymerase ribozyme fitness (log ratio)” value was -4.12.

As to G25C A60U C93A C95G A137G, the “polymerase ribozyme fitness (log ratio)” value was ≤ -4.2.

Turning to A22C U101G, the “polymerase ribozyme fitness (log ratio)” value was determined as 0.0923.

As to A41U G117C, the “polymerase ribozyme fitness (log ratio)” value was -0.836.

Consider U9C A37U G92A U102G C108U, for which the “polymerase ribozyme fitness (log ratio)” value was ≤ -4.2.

Take C85U C131U G143U: the “polymerase ribozyme fitness (log ratio)” value was -2.54.

For the variant G68A A106C, the “polymerase ribozyme fitness (log ratio)” value is -4.13.

For the variant C38A C76U, the “polymerase ribozyme fitness (log ratio)” value is -0.21.

With U55A G62A C96U, the “polymerase ribozyme fitness (log ratio)” value is -2.14.

For G25C U78G C87U G117U C118U U148A, the “polymerase ribozyme fitness (log ratio)” value was ≤ -4.2.
